In experiment [1] the target is T1, Human CXCR2 (human, UniProt P25025 1-360).
T1 sequence: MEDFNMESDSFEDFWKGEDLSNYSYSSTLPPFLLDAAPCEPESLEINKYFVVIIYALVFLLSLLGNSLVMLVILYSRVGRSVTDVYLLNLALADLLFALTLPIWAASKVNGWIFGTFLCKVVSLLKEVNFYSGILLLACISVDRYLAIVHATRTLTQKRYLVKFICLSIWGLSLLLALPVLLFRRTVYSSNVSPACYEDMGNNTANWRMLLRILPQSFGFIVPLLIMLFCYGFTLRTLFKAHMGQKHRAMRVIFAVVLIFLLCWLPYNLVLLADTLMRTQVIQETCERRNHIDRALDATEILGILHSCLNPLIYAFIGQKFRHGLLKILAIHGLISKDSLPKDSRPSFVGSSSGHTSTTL
Nature of the experiment: cell-based or functional assay.

Experiment [2] deals with T2, Cynomolgus CXCR2 (cynomolgus, UniProt Q28519 3-353 (rhesus entry)).
T2 chain: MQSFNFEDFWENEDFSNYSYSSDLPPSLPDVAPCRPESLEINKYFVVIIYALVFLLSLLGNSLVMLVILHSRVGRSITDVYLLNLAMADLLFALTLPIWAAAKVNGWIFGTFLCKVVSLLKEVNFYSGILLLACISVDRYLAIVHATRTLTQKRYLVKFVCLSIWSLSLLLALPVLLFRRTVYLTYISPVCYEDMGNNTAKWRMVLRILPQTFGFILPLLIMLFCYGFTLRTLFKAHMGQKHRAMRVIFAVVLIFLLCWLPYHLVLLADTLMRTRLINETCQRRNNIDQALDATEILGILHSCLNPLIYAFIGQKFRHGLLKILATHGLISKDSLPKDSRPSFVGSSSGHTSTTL
The experiment is described as follows: cell-based or functional assay.

Experiment [3] has as its target T1, Human CXCR2. Nature of the experiment: cell-based or functional assay. The source holds these as a separate data set.
The target of experiment [4] is T1, Human CXCR2. Nature of the experiment: cell-based or functional assay. This is another data set of the same source.
Experiment [5] deals with T2, Cynomolgus CXCR2. The experiment is described as follows: cell-based or functional assay.
For experiment [6], the target named is T1, Human CXCR2. The experiment is described as follows: FACS competition vs 3 nM FMAT-Blue Gro-α. The procedure:
(§1) Multivalent anti-CXCR2Nanobodies were titrated against 3 nM FMAT-Blue-labeled Gro-α in the FACS ligand competition assay on human and cynomolgus CXCR2 (Table 14). On human CXCR2, blocking potencies range between double digit nM and sub-nM whereas on cynomolgus CXCR2, they range between single and double digit nM.

In experiment [7] the target is T2, Cynomolgus CXCR2. Nature of the experiment: FACS competition vs 3 nM FMAT-Blue Gro-α. The procedure: as §1

B1: CXCR20034 (bispecific antibody)
chain: EVQLVESGGGLVQAGGSLRLSCAASGRTFSDYAMGWFRQAPGKEREFVAAITWNGGRVFYTASVKGRFTISRDNAKNTMYLQMNSLKPEDTAVYYCAADKDRRTDYLGHPVAYWGQGTQVTVSSGGGGSGGGGSGGGGSGGGGSGGGGSGGGGSGGGGSEVQLVESGGELVQPGGSLRLSCAASGSILTINAMGWYRQAPGKQRELVVRRTRGGSTTYQDSVKGRFTISADIAKKTMYLQMNSLKPEDTAVYYCMLDDRGGVYWGQGTQVTVSS
notes: Biparatopic: two VHH joined by a GlySer linker; also called 163D2-35GS-2B2; 163D2-2B2; not shown: C-terminal c-myc tag and His6 tag coded by pAX100
What is called IC50 is the concentration at which inhibition is half-maximal. Read a low IC50 as inhibition by little substance. For the molecule B1, in the experiment with Human CXCR2 [1], the “FLIPR % inhibition of max” value stood at 100% and the “FLIPR IC50 (GRO-α induced calcium release)” value was 11.8 nM. In the experiment with Cynomolgus CXCR2 [2], the “FLIPR % inhibition of max” value worked out at 100% and the “FLIPR IC50 (GRO-α induced calcium release)” value stood at 9.47 nM. In the experiment with Human CXCR2 [3], the “[35S]GTPγS % inhibition of max (GRO-α)” value is 100% and the “[35S]GTPγS IC50 (GRO-α)” value is 0.995 nM. Also, in the experiment with Human CXCR2 [4], the “Human Chemotaxis IC50 (rhGROα)” value amounted to 0.143 nM and the “Human WBSC IC50 (rhGROα)” value is 0.29 nM. Also, in the experiment with Cynomolgus CXCR2 [5], the “Cynomologus WBSC IC50 (rhGROα)” value came out at 0.44 nM. Moreover, in the experiment with Human CXCR2 [6], the “% inhibition of max” value was found to be 100% and the concentration for half-maximal inhibition (IC50) stood at 0.8 nM. In the experiment with Cynomolgus CXCR2 [7], the “% inhibition of max” value came to 99% and the IC50 stood at 2.55 nM.

B2: CXCR20033 (bispecific antibody)
chain: EVQLVESGGGLVQPGGSLRLSCVASGRIFSSNAMGWFRQAPGKEREFVAAITWRSGGSAYYADSAKGRFTISRDNAKNTVYLQMNSLKPEDTAVYYCAAGGSSWLSFPPDYWGQGTQVTVSSGGGGSGGGGSGGGGSGGGGSGGGGSGGGGSGGGGSEVQLVESGGELVQPGGSLRLSCAASGSILTINAMGWYRQAPGKQRELVVRRTRGGSTTYQDSVKGRFTISADIAKKTMYLQMNSLKPEDTAVYYCMLDDRGGVYWGQGTQVTVSS
notes: Biparatopic: two VHH joined by a GlySer linker; also called 163E3-35GS-2B2; 163E3-2B2; not shown: C-terminal c-myc tag and His6 tag coded by pAX100
For the molecule B2, in the experiment with Human CXCR2 [1], the “FLIPR % inhibition of max” value stood at 100% and the “FLIPR IC50 (GRO-α induced calcium release)” value came out at 17.9 nM. Moreover, in the experiment with Cynomolgus CXCR2 [2], the “FLIPR % inhibition of max” value amounted to 100% and the “FLIPR IC50 (GRO-α induced calcium release)” value is 4.46 nM. Further, in the experiment with Human CXCR2 [3], the “[35S]GTPγS % inhibition of max (GRO-α)” value turned out to be 100% and the “[35S]GTPγS IC50 (GRO-α)” value worked out at 1.01 nM. In the experiment with Human CXCR2 [4], the “Human Chemotaxis IC50 (rhGROα)” value was determined as 0.15 nM and the “Human WBSC IC50 (rhGROα)” value was 0.345 nM. The “Cynomologus WBSC IC50 (rhGROα)” value with Cynomolgus CXCR2 [5] is 0.42 nM. In addition, in the experiment with Human CXCR2 [6], the “% inhibition of max” value worked out at 100% and the IC50 turned out to be 0.65 nM. In addition, in the experiment with Cynomolgus CXCR2 [7], the “% inhibition of max” value was found to be 99% and the IC50 worked out at 2.2 nM.

B3: CXCR20020 (bispecific antibody)
chain: EVQLVESGGGLVQAGESLRLSCAASGSTFDFKVMGWYRQPPGKQREGVAAIRLSGNMHYAESVKGRFTISKANAKNTVYLQMNSLRPEDTAVYYCKVNIRGQDYWGQGTQVTVSSGGGGSGGGGSGGGGSGGGGSGGGGSGGGGSGGGGSEVQLVESGGGLVQAGGSLRLSCAASGRTFSDYAMGWFRQAPGKEREFVAAITWNGGRVFYTASVKGRFTISRDNAKNTMYLQMNSLKPEDTAVYYCAADKDRRTDYLGHPVAYWGQGTQVTVSS
notes: Biparatopic: two VHH joined by a GlySer linker; also called 127D1-35GS-163D2; 127D1-163D2; not shown: C-terminal c-myc tag and His6 tag coded by pAX100
Regarding B3, in the experiment with Human CXCR2 [1], the “FLIPR % inhibition of max” value worked out at 100% and the “FLIPR IC50 (GRO-α induced calcium release)” value turned out to be 6.98 nM. Also, in the experiment with Cynomolgus CXCR2 [2], the “FLIPR % inhibition of max” value was 100% and the “FLIPR IC50 (GRO-α induced calcium release)” value was found to be 1.64 nM. In addition, in the experiment with Human CXCR2 [3], the “[35S]GTPγS % inhibition of max (ENA-78)” value stood at 100%, the “[35S]GTPγS % inhibition of max (GRO-α)” value came to 100%, the “[35S]GTPγS % inhibition of max (IL-8)” value worked out at 100% and the “[35S]GTPγS IC50 (ENA-78)” value was determined as 0.707 nM. In the experiment with Human CXCR2 [3], the “[35S]GTPγS IC50 (GRO-α)” value was 0.634 nM and the “[35S]GTPγS IC50 (IL-8)” value is 0.619 nM. For the same molecule, in the experiment with Human CXCR2 [4], the “Human Chemotaxis IC50 (rhGROα)” value was 0.143 nM and the “Human WBSC IC50 (rhGROα)” value is 0.17 nM. In addition, the “Cynomologus WBSC IC50 (rhGROα)” value with Cynomolgus CXCR2 [5] is 0.12 nM. Further, in the experiment with Human CXCR2 [6], the “% inhibition of max” value was 100% and the IC50 was 0.99 nM. In the experiment with Cynomolgus CXCR2 [7], the “% inhibition of max” value was determined as 98.5% and the IC50 turned out to be 1.78 nM.

B4: CXCR20035 (other)
chain: EVQLVESGGGLVQAGGSLTLSCAVSGSTFRINTMGWYRRAPGKQRELVAARDRGGYINYVDSVKGRFTVSRDNAKPTMYLQMNSLKPEDTAVYYCHAGTQDRTGRNFDRWGQGTQVTVSSGGGGSGGGGSGGGGSGGGGSGGGGSGGGGSGGGGSEVQLVESGGGLVQPGGSLRLSCVASGRIFSSNAMGWFRQAPGKEREFVAAITWRSGGSAYYADSAKGRFTISRDNAKNTVYLQMNSLKPEDTAVYYCAAGGSSWLSFPPDYWGQGTQVTVSS
notes: Biparatopic: two VHH joined by a GlySer linker; also called 54B12-35GS-163E3; 54B12-163E3; not shown: C-terminal c-myc tag and His6 tag coded by pAX100
As to B4, in the experiment with Human CXCR2 [1], the “FLIPR % inhibition of max” value was determined as 100% and the “FLIPR IC50 (GRO-α induced calcium release)” value is 10.2 nM. For the same molecule, in the experiment with Cynomolgus CXCR2 [2], the “FLIPR % inhibition of max” value worked out at 100% and the “FLIPR IC50 (GRO-α induced calcium release)” value was 8.72 nM. Also, in the experiment with Human CXCR2 [3], the “[35S]GTPγS % inhibition of max (ENA-78)” value was 100%, the “[35S]GTPγS % inhibition of max (GRO-α)” value is 100%, the “[35S]GTPγS % inhibition of max (IL-8)” value was 100% and the “[35S]GTPγS IC50 (ENA-78)” value is 1.17 nM. In the experiment with Human CXCR2 [3], the “[35S]GTPγS IC50 (GRO-α)” value is 0.844 nM and the “[35S]GTPγS IC50 (IL-8)” value turned out to be 0.717 nM. In addition, the “Human WBSC IC50 (rhGROα)” value in the experiment with Human CXCR2 [4] is 0.24 nM. In addition, the “Cynomologus WBSC IC50 (rhGROα)” value with Cynomolgus CXCR2 [5] is 0.43 nM. In the experiment with Human CXCR2 [6], the “% inhibition of max” value amounted to 99% and the IC50 amounted to 1 nM. In the experiment with Cynomolgus CXCR2 [7], the “% inhibition of max” value was determined as 99% and the IC50 was 3.23 nM.

B5: CXCR20014 (bispecific antibody)
chain: EVQLVESGGGLVQPGGSLRLSCVASGSIVRINTMGWYRQTPGKQRELVADITSGGNINYIDAVKGRFTISRDNTKNTVYLQMNSLKPEDTAVYYCNAEIVVLVGVWTQRARTGNYWGQGTQVTVSSGGGGSGGGGSGGGGSGGGGSGGGGSGGGGSGGGGSEVQLVESGGELVQPGGSLRLSCAASGSILTINAMGWYRQAPGKQRELVVRRTRGGSTTYQDSVKGRFTISADIAKKTMYLQMNSLKPEDTAVYYCMLDDRGGVYWGQGTQVTVSS
notes: Biparatopic: two VHH joined by a GlySer linker; also called 97A9-35GS-2B2; 97A9-2B2; not shown: C-terminal c-myc tag and His6 tag coded by pAX100
Turning to B5, in the experiment with Human CXCR2 [1], the “FLIPR % inhibition of max” value worked out at 100% and the “FLIPR IC50 (GRO-α induced calcium release)” value is 6.84 nM. In the experiment with Cynomolgus CXCR2 [2], the “FLIPR % inhibition of max” value amounted to 100% and the “FLIPR IC50 (GRO-α induced calcium release)” value was determined as 13.7 nM. Besides, in the experiment with Human CXCR2 [3], the “[35S]GTPγS % inhibition of max (ENA-78)” value worked out at 100%, the “[35S]GTPγS % inhibition of max (GRO-α)” value is 100%, the “[35S]GTPγS % inhibition of max (IL-8)” value was found to be 100% and the “[35S]GTPγS IC50 (ENA-78)” value stood at 1.66 nM. In addition, in the experiment with Human CXCR2 [3], the “[35S]GTPγS IC50 (GRO-α)” value was determined as 1.38 nM and the “[35S]GTPγS IC50 (IL-8)” value came to 1.13 nM. In addition, in the experiment with Human CXCR2 [4], the “Human Chemotaxis IC50 (rhGROα)” value turned out to be 0.16 nM and the “Human WBSC IC50 (rhGROα)” value was determined as 0.445 nM. In the experiment with Cynomolgus CXCR2 [5], the “Cynomologus WBSC IC50 (rhGROα)” value is 0.16 nM. In addition, in the experiment with Human CXCR2 [6], the “% inhibition of max” value is 99.7% and the 50% inhibitory concentration (IC50) stood at 1.59 nM. In addition, in the experiment with Cynomolgus CXCR2 [7], the “% inhibition of max” value was 98.5% and the IC50 is 3.9 nM.
